Measurements from publication PMC6720803, “Stability Evaluation and Stabilization of a Gastrin-Releasing Peptide Receptor (GRPR) Targeting Imaging Pharmaceutical” (Molecules, 2019).

Assays:
[1] = log D by shake-flask method; assay type: physicochemical
Description: The log D values were determined by a traditional shake-flask method. In a typical experiment, 10 μL sample of ^177Lu-labeled AMBA or RM1 with 0.037–0.052 GBq/mL radioconcentration and 814 GBq/mmol molar activity were added to a 4 mL mixture of 50:50 octanol:water. The mixture was shaken for one minute and mixed well. The sample was stored at room temperature for 5 min for separation of the two layers. Sample from each layer (25 μL) was added to a counting tube containing 250 μL water. The samples were mixed and counted. Triplicate measurements were made. The log D values were calculated using Equation (1): D = Counts in organic phase/Counts in the aqueous phase.(1)

[2] = assay type: physicochemical; settings: pH 7.2
Description: A dose calibrator (Capintec, Florham Park, NJ, USA) and a Wizard 2480 gamma counter (Perkin Elmer, Waltham, MA, USA) were used for radioactivity measurements in the samples. A model 1100 Agilent HPLC system (Agilent, Wilmington, DE, USA) was used for the analysis of ^177Lu-labeled RM1 and AMBA and stability samples. The system consisted of a quaternary pump, degasser, column compartment capable of controlling the temperature at ambient or at 37 °C, auto-injector, a multiwavelength detector, and a Flow Ram radioisotope detector (Lab Logic, Sheffield, UK). The system was controlled by Laura software from Lab Logic. […] Zorbax Bonus RP C18 column (4.6 × 250 mm, 5 µm) was used for the analysis of ^177Lu-labeled AMBA and RM1 samples and for the separation of the ^177Lu-labeled AMBA and RM1 from their in vitro metabolic degradants in mouse, human, and canine sera stability samples.
(§1) All mass spectral analyses were performed at the Campus Chemical Instrument Center of the Ohio State University (Columbus, OH, USA) using a Bruker UltrafleXtreme MALDI-TOF MS system. […]

[3] = assay type: in vitro ADME, mouse
Description: (§2) For mouse, canine, and human sera stability studies, 50 µL of ^177Lu-labeled RM1 or AMBA was mixed with 450 µL of mouse or canine or human serum. The mixtures were incubated at 37 °C for 24 h, samples were processed at each time point, and analyzed by an RP-HPLC method.
as §1
(§3) A literature procedure was followed for the serum stability studies of ^177Lu-labeled RM1 and AMBA [37, 43]. […] Several mixtures, containing 50 µL of ^177Lu-labeled RM1 or AMBA (usually 1.48 to 2.22 MBq radioactivity) and 450 µL of the mouse or human or canine serum, were prepared in HPLC vials and incubated at 37 °C in the block heater. […] The sample was then centrifuged at 6000 rpm for 15 min, and 200 µL of the supernatant solution was isolated and analyzed by an RP- HPLC method given above. A control experiment was conducted where samples of ^177Lu-labeled AMBA and RM1 were incubated in the water at 37 °C and analyzed by the RP-HPLC method.
(§4) Degradation of ^177Lu-labeled RM1 or AMBA was monitored by a reduction in percent HPLC peak area with time. […]

[4] = Stability of high-radioconcentration samples in acetate buffer without and with stabilizers; assay type: physicochemical; settings: 2–8 °C; for half-life of degradation (t1/2): 0.1 M acetate buffer pH 5, high radioconcentration (0.74 GBq/mL), RP-HPLC, first-order fit, average (SD) n = 3
Description: The ^177Lu-labeled RM1 samples in acetate buffer, with 0.74 GBq/mL radio concentration, 10,175–12,765 GBq/mmol molar activity, and >99% RCP, were prepared for high-radioconcentration sample stability studies. […] Degradation of the high-radioconcentration sample in acetate buffer was at least 20 times faster than the degradation of the low-radioconcentration samples of ^177Lu-labeled RM1.
All mass spectral analyses were performed at the Campus Chemical Instrument Center of the Ohio State University (Columbus, OH, USA) using a Bruker UltrafleXtreme MALDI-TOF MS system. An RP-HPLC method, involving a gradient mobile phase system of 50 mM Tris acetate, 10 mM EDTA at pH 7.2 (solvent A), and acetonitrile (solvent B) with 1 mL/min flow rate, was used to monitor the extent of the reaction of ^177Lu/Lu with AMBA and RM1; for the purity analysis of RM1, AMBA, Lu-RM1, Lu-AMBA, and of the final ^177Lu-labeled samples; and for monitoring the degradation of ^177Lu-labeled RM1 or AMBA samples in acetate buffer, mouse, canine, and human sera. The EDTA was incorporated to detect any unreacted ^177Lu/Lu in the samples. The gradient program used was 0% B at the beginning, raising the percentage of B to 50% in 15 min, holding B at 50% for 4 min, followed by decreasing the percentage of B to 0% in 5 min and continuing 0% for an additional 9 min. The total run time was […].
All samples of ^177Lu-labeled RM1 were prepared in 0.1 M acetate buffer, pH 5–5.5. The ^177Lu-labeled RM1 samples, with a low radioconcentration, were stored at room temperature and at 2–8 °C storage conditions for 6 d for stability studies. The samples with a high radioconcentration, without and with a stabilizer (gentisic acid or ascorbic acid), were stored 2–8 °C for 2 and 7 d, respectively. For the effect of stabilizer (ascorbic acid or gentisic acid) on the stability of the high-radioconcentration samples of ^177Lu-labeled RM1, the samples were mixed with 500 µg of ascorbic or gentisic acid post radiolabeling. The stability or degradation of the samples was monitored by a reduction in the percent HPLC peak area of ^177Lu-labeled RM1 with time.
Degradation of ^177Lu-labeled RM1 or AMBA was monitored by a reduction in percent HPLC peak area with time. Half-lives of in vitro acetate buffer and serum degradation for each imaging pharmaceutical were calculated by fitting the percent peak remaining versus time to a first-order kinetics model (Equations (2) and (3)) using Excel or Graph Pad Prism version 5.03 software (Graph Pad Software, Inc., La Jolla, CA, USA). Pt = P0 exp (−k × t);(2) t1/2 = 0.693/k;(3) where Pt is the percent peak area at time t, Po is the percent peak area initially, t is the time elapsed, k is the first-order rate constant, and t1/2 is the half-life of degradation reaction. All degradation kinetics experiments were conducted in triplicate, and average (n = 3) values (standard deviation given in the parenthesis) of half-life are reported.

[5] = In vitro human serum stability; assay type: in vitro ADME; settings: 50 µL labeled peptide + 450 µL human serum, 37 °C, RP-HPLC, read-out: degradation in human serum
Description: as §2, §1, §3, §4

[6] = Stability of low-radioconcentration samples in acetate buffer; assay type: physicochemical; settings: pH 5
Description: The final pH of the ^177Lu-labeled RM1 and AMBA, post radiolabeling, was usually ~5 to 5.5, and the acetate buffer concentration was 0.1 M. Consequently, the degradation kinetics of ^177Lu-labeled RM1 and AMBA were evaluated in this environment after storage at room temperature (25 °C) and 2–8 °C for 5 d. Both samples were analyzed using an RP-HPLC method at various time points.
as §1
All samples of ^177Lu-labeled RM1 were prepared in 0.1 M acetate buffer, pH 5–5.5. […] The stability or degradation of the samples was monitored by a reduction in the percent HPLC peak area of ^177Lu-labeled RM1 with time.
Degradation of ^177Lu-labeled RM1 or AMBA was monitored by a reduction in percent HPLC peak area with time. Half-lives of in vitro acetate buffer and serum degradation for each imaging pharmaceutical were calculated by fitting the percent peak remaining versus time to a first-order kinetics model (Equations (2) and (3)) using Excel or Graph Pad Prism version 5.03 software (Graph Pad Software, Inc., La Jolla, CA, USA). […]

[7] = tested on: gastrin-releasing peptide (GRP) receptors in a PC-3 cell line; design: method as in PMID 16818949, PMID 16909223; settings: GRP receptors in PC-3 cell line; cited from earlier work
Description: The first proof-of-concept GRPR targeting study was conducted using a ^99mTc-labeled BBN (7–14) conjugate (RP527) for breast and prostate cancer imaging. […] Despite the general consensus rel ...

PC-3 tumor = settings: mouse, in vivo; cited from earlier work
Excerpt: Several classes of BBN antagonists have been designed by modifying the C-terminal residues of naturally amidated BBN agonists. […] Additionally, ^68Ga-, ^111In-, and ^18F-AlF-labeled NOTA-PEG2-RM26 (where RM26 = D-Phe-Gln-Trp-Ala-Val-Gly-His-Sta-L ...

GRPR = tested on: GRPR; design: method as in PMID 23763444, PMID 24312607; settings: cell binding and internalization; cited from earlier work

With `CC(C)C[C@H](NC(=O)C[C@H](O)[C@H](CC(C)C)NC(=O)[C@H](Cc1c[nH]cn1)NC(=O)CNC(=O)[C@@H](NC(=O)[C@H](C)NC(=O)[C@H](Cc1c[nH]c2ccccc12)NC(=O)[C@H](CCC(N)=O)NC(=O)[C@@H](Cc1ccccc1)NC(=O)c1ccc(NC(=O)CNC(=O)CN2CCN(CC(=O)O)CCN(CC(=O)O)CCN(CC(=O)O)CC2)cc1)C(C)C)C(N)=O` [Lu-RM1] the “log D” value [1] was −2.46 (0.07) and the “relative lipophilicity from retention times” value [2] was “slightly more lipophilic than Lu-AMBA”.
With `CC(C)C[C@H](NC(=O)C[C@H](O)[C@H](CC(C)C)NC(=O)[C@H](Cc1c[nH]cn1)NC(=O)CNC(=O)[C@@H](NC(=O)[C@H](C)NC(=O)[C@H](Cc1c[nH]c2ccccc12)NC(=O)[C@H](CCC(N)=O)NC(=O)[C@@H](Cc1ccccc1)NC(=O)c1ccc(NC(=O)CNC(=O)CN2CCN(CC(=O)O)CCN(CC(=O)O)CCN(CC(=O)O)CC2)cc1)C(C)C)C(N)=O` [^177Lu-labeled RM1, metal not drawn] the “degradation after 1440 min incubation” value [3] was “complete degradation”, the “half-life of degradation (t1/2)” value ([4]; 500 µg ascorbic acid) was 39.2 (0.6) h and the “half-life of degradation (t1/2)” value ([4]; 500 µg gentisic acid) was 142.5 (1.4) h. For the same compound, the “half-life of degradation (t1/2)” value ([4]; no stabilizer) was 8.5 (0.2) h, the “degradation of high- versus low-radioconcentration samples, times faster” value ([4]; acetate buffer) was “at least 20 times” and the “improvement of stability versus no stabilizer” value ([4]; high radioconcentration, 500 µg gentisic acid) was ~17 fold. The “factor by which degradation is reduced versus control without stabilizer” value ([4]; high radioconcentration, ascorbic acid) was ≥ 5, the metabolised at 24 h [5] was < 10% and the “degraded in acetate buffer within the same time period as the mouse serum study” value [6] was 10-12%.
In the case of “DO3A-CH2CO-G-[4-aminobenzyl]- Gln-Trp-Ala-Val-Gly-His-Leu-Met-NH2 [AMBA, GRPR agonist, BBN-like peptide chelator conjugate, gift from Bracco Diagnostics]”, the IC50 [7] is listed as 4.75 ± 0.25 nM.
In the case of “NOTA-PEG2-RM26 (where RM26 = D-Phe-Gln-Trp-Ala-Val-Gly-His-Sta-Leu-NH2) [^68Ga-labeled NOTA-PEG2-RM26, 68Ga-labeled NOTA-PEG2 conjugate of the GRPR antagonist peptide RM26]”, the specific tumor uptake (PC-3 tumor) is given as 8.1 ± 0.4 %ID/g and the IC50 (GRPR) is given as 0.91 ± 0.19 nM.
In the case of “NOTA-PEG2-RM26 (where RM26 = D-Phe-Gln-Trp-Ala-Val-Gly-His-Sta-Leu-NH2) [^111In-labeled NOTA-PEG2-RM26, 111In-labeled NOTA-PEG2 conjugate of the GRPR antagonist peptide RM26]”, the specific tumor uptake (PC-3 tumor) is listed as 5.7 ± 0.3 %ID/g and the IC50 (GRPR) is listed as 1.24 ± 0.29 nM.
